From patent publication US10379127B2, “Marker of cell death” (priority 2013, dated 2019) come the findings set out here.

The subject of assay [1] is Jurkat cells. Kind of assay: Relative proportions of live, apoptotic and dead Jurkat cells challenged with staurosporine (Sytox Red and MAb2C4:AF568 staining). It counts as cell-based. To be noted: 2×10^−7M, 5×10^−7M and 10×10^−7M for 40 hours, FIG. 10.
Protocol: Analysis of relative proportions of live, apoptotic and dead Jurkat cells challenged with 2×10^−7M, 5×10^−7M and 10×10^−7M staurosporine for 40 hours.
Assay [2] relates to Jurkat cells. Kind of assay: FACS analysis of Jurkat cells induced to undergo Programmed Cell Death, live-stained with antibody:fluorophore conjugate. The class given is cell-based. Here is the method:
FIG. 6. Scatter plots from FACS analysis of Jurkat cells treated with the cytotoxin staurosporine (5×10^-7M) for 40 hours to induce Programmed Cell Death including apoptosis and finally cell death (necrosis). The populations of live, apoptotic and dead cells were live-stained with 1 μg/mL MAb2C4:AF568 and/or annexin V:AF488 and the fluorescence intensity (FI) of each shown on the ordinate and abscissa respectively. A: Cell populations stained with MAb2C4:AF568 alone; B: Cell populations stained with MAb2C4:AF568 plus annexin V:AF488; C: Cell populations stained with annexin V:AF488 alone; D: Cell populations stained with MAbFLAG:AF568 plus annexin V:AF488; E: No additions.
FIG. 7. Histograms from FACS analysis of Jurkat cells induced to undergo Programmed Cell Death [PCD] (as for FIG. 6). Shown are overlaid curves representative of live, apoptotic and necrotic (dead) cell populations [A, B & C]. In D these curves are aligned for ease of comparison.
FIG. 8. Overlaid scatter plots showing increasing FI of apoptotic and dead Jurkat populations stained with MAb2C4:AF568 compared to the MAbFLAG:AF568 isotype control.
FIG. 9. Scatter plots showing FI with MAb2C4:AF568 (abscissa) and/or Sytox Red (ordinate). A: Sytox Red alone; B: Increased FI of apoptotic, transition and dead (necrotic) cell populations stained with MAb2C4:AF568; C: Overlaid dot plots of A & B.
MAb2C4 is a mouse anti-human CTR antibody (IgG1) that binds an extracellular epitope and has been conjugated with AlexaFluor 568 (MAb2C4:AF568). […] MAb2C4:AF568 was validated using cell lines expressing human calcitonin receptor (hCTR).
MAbFLAG:AF568 is an IgG1 isotype control. This conjugate was validated using a stable transfectant HEK293 cell line that expresses the PA receptor tagged with a FLAG epitope sequence. The FLAG epitope is positioned on the cell surface. Annexin V:AF488 binds the plasma membrane of dying (apoptotic) and dead (necrotic) cells.
(A flow cytometer gives signals particle by particle.)

Take `CN[C@@H]1C[C@H]2O[C@@](C)([C@@H]1OC)n1c3ccccc3c3c4c(c5c6ccccc6n2c5c31)C(=O)NC4` [staurosporine]: the “proportion of live cells” value in the assay with Jurkat cells [1] is given as “decreases with increasing concentrations”. Also, the “proportion of apoptotic and dead cell populations” value with Jurkat cells [1] (Sytox Red and MAb2C4:AF568 staining) was “increases”.

B1: MAb2C4:AF568: mouse anti-human CTR antibody (IgG1) that binds an extracellular epitope, conjugated with AlexaFluor 568 (conjugate)
VH: QVHLQQSGAELARPGASVRLSCEASGYTFTKYWMQWIKQRPGQGLEWIGAIYPGDGDSRYTPKFKGKATLTADKSSGTAYIQLSSLASEDSAVYYCARGDGTYWGQGTLVTVSA
VL: DIQMTQSPASLSASVGETVTITCRASENIYSYLAWYQQKQGKSPQLLVYKAKTLEEGVPSRFSGSGSGTQFSLKINSLQPEDFGSYYCQHHYGTPRTFGGGTKLEIK
For the molecule B1, the “binding to apoptotic and dead cells” value in the assay with Jurkat cells [2] (Example 5 summary statement) was “binds apoptotic cells and is accumulated into dead cells”. The “FI (red channel) of apoptotic and dead cell populations, histograms” value with Jurkat cells [2] (Jurkat cells induced to undergo PCD as for FIG. 6, compared to MAbFLAG:AF568 isotype control, FIG. 7) is recorded as “increase in FI”. Moreover, the “fluorescence intensity (FI), scatter plots” value in the assay with Jurkat cells [2] (Jurkat cells, staurosporine 5×10^-7M for 40 hours, live-stained 1 μg/mL, with or without annexin V:AF488, FIG. 6) is given as “increased FI”. The “FI of apoptotic and dead Jurkat populations, overlaid scatter plots” value with Jurkat cells [2] (compared to MAbFLAG:AF568 isotype control, FIG. 8) is “increasing FI”. Besides, in the assay on Jurkat cells [2] (scatter plots with Sytox Red on the ordinate, FIG. 9), the “FI of apoptotic, transition and dead (necrotic) cell populations” value is recorded as “Increased FI”.
